Source: US20260174875A1 (Novo Nordisk A/S, priority 2023, published 2026)
Square brackets hold non-standard residues; d marks the D form. Chem. 28 = not defined here; Aib = CC(C)(N)C(=O)O

B1: Compound 36 (peptide)
peptide: H[Aib]HGTFTSDYSILLEEQAAREFIEWLLAGGPSK(Chem. 28)GEASHLSTAQTARLSAELHELATLPRTETGSGSP-NH2
modifications: reading uncertain
B2: Compound 37 (peptide)
peptide: H[Aib]HGTFTSDYSILLEEQAAREFIEWLLAGGPSK(Chem. 28)GAPPPSGGGEASHLSTAQTARLSAELHRLADLPRTETGSGSP-NH2
modifications: reading uncertain
B3: Compound 38 (peptide)
peptide: Y[Aib]EGTFTSDYSILLEEQAAREFIEWLLAGGPSK(Chem. 28)GGQAPGQAPGEASHLSTAQTQRLSAELHELATLPRTETGSGSP-NH2
modifications: reading uncertain
B4: Compound 39 (peptide)
peptide: Y[Aib]EGTFTSDYSILLEEQAAREFIEWLLAGGPSK(Chem. 28)GGQEPGQEPGEASHLSTAQTQRLSAELHELATLPRTETGSGSP-NH2
modifications: reading uncertain
B5: Compound 43 (peptide)
peptide: H[Aib]HGTFTSDYSILLEEQAAREFIEWLLAGGPSK(Chem. 28)GEASQLSTAALGRLSAELHRLADLPRTETGSGSP-NH2
modifications: reading uncertain
B6: Compound 45 (peptide)
peptide: H[Aib]HGTFTSDYSILLEEQAAREFIEWLLAGGPSK(Chem. 28)GALAQTLGTNEASHLSTAQTQRLSAELHELATLPRTETGSGSP-NH2
modifications: reading uncertain
B7: Compound 47 (peptide)
peptide: H[Aib]HGTFTSDYSILLEEQAAREFIEWLLAGGPSK(Chem. 28)GAGQAPGQAPGASHLSTAQTQRLSAELHELATLPRTETGSGSP-NH2
modifications: reading uncertain
B8: Compound 48 (peptide)
peptide: Y[Aib]EGTFTSDYSILLEEQAAREFIEWLLAGGPSSGALAQTLAQTLASHLSTAQTQRLSAELHK(Chem. 28)LATLPRTETGSGSP-NH2
modifications: reading uncertain
B9: Compound 49 (peptide)
peptide: Y[Aib]EGTFTSDYSILLEEQAAREFIEWLLAGGPSSGAPPPSGGGEASHLSTAQTQRLSAELHK(Chem. 28)LATLPRTETGSGSP-NH2
modifications: reading uncertain
B10: Compound 50 (peptide)
peptide: Y[Aib]EGTFTSDYSILLEEQAAREFIEWLLAGGPSSGEASHLSTAQTQRLSAELHK(Chem. 28)LATLPRTETGSGSP-NH2
modifications: reading uncertain
B11: Compound 23 (peptide)
peptide: Y[Aib]EGTFTSDYSILLEEQAAREFIEWLLAGGPSK(Chem. 28)GALAQTLGTNEASELSTAALGRLSAELHELATLPRTETGSGSP-NH2
modifications: reading uncertain
B12: Compound 24 (peptide)
peptide: Y[Aib]EGTFTSDYSILLEEQAAREFIEWLLAGGPSK(Chem. 28)GALAQTLFVNQASELSTAALGRLSAELHELATLPRTETGSGSP-NH2
modifications: reading uncertain
B13: Compound 25 (peptide)
peptide: H[Aib]HGTFTSDYSILLEEQAAREFIEWLLAGGPSK(Chem. 28)GEASELSTAALGRLSAELHRLATLPRTETGSGSP-NH2
modifications: reading uncertain
B14: Compound 27 (peptide)
peptide: Y[Aib]EGTFTSDYSILLEEQAAREFIEWLLAGGPSK(Chem. 28)GEASELSTAQLGRLSAELHRLATLPRTETGSGSP-NH2
modifications: reading uncertain
B15: Compound 28 (peptide)
peptide: Y[Aib]EGTFTSDYSILLEEQAAREFIEWLLAGGPSK(Chem. 28)GEASELSTAALARLSAELHRLATLPRTETGSGSP-NH2
modifications: reading uncertain
B16: Compound 29 (peptide)
peptide: Y[Aib]EGTFTSDYSILLEEQAAREFIEWLLAGGPSK(Chem. 28)GEASELSTAALGRLSAELHYLATLPRTETGSGSP-NH2
modifications: reading uncertain
B17: Compound 30 (peptide)
peptide: H[Aib]HGTFTSDYSILLEEQAAREFIEWLLAGGPSK(Chem. 28)GAPPPSGGGEASELSTAALGRLSAELHRLATLPRTETGSGSP-NH2
modifications: reading uncertain
B18: Compound 31 (peptide)
peptide: Y[Aib]EGTFTSDYSILLEEQAAREFIEWLLAGGPSSK(Chem. 28)APPPSGGGEASELSTAALGRLSAELHRLATLPRTETGSGSP-NH2
modifications: reading uncertain
B19: Compound 32 (peptide)
peptide: Y[Aib]EGTFTSDYSILLEEQAAREFIEWLLAGGPSK(Chem. 28)GAEASELSTAALGRLSAELHELATLPRTETGSGSP-NH2
modifications: reading uncertain

target: T1, human GLP-1 receptor (human, UniProt P43220 24-463); assay: cell-based or functional assay

Row | Binder | hGLP-1R Potency, no HSA, EC50 [pM]
1 | B1 | 3.19 pM
2 | B2 | 3.94 pM
3 | B3 | 12 pM
4 | B4 | 23.7 pM
5 | B5 | 4.31 pM
6 | B6 | 4.78 pM
7 | B7 | 3.15 pM
8 | B8 | 64.8 pM
9 | B9 | 33.3 pM
10 | B10 | 16.2 pM
11 | B11 | 15.3 pM
12 | B12 | 51.5 pM
13 | B13 | 2.87 pM
14 | B14 | 26.2 pM
15 | B15 | 96 pM
16 | B16 | 27.1 pM
17 | B17 | 6.37 pM
18 | B18 | 47.8 pM
19 | B19 | 27.6 pM

target: T2, human GIP receptor (human, UniProt P48546 22-466); assay: cell-based or functional assay
T2 sequence (looked up): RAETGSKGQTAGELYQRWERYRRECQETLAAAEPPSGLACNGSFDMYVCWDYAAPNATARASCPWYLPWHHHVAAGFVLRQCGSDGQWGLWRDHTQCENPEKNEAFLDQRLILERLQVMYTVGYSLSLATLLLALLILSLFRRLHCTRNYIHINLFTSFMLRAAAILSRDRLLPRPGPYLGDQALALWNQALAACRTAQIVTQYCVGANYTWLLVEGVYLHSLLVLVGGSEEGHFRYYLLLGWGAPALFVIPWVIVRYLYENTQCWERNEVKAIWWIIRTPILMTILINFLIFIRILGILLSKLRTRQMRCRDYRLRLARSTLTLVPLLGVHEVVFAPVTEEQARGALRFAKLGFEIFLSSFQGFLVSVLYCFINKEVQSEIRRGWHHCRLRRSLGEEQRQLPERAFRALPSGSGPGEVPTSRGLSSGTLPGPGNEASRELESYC

Row | Binder | hGIPR Potency, no HSA, EC50 [pM]
20 | B1 | 1.96 pM
21 | B2 | 2.34 pM
22 | B3 | 1.37 pM
23 | B4 | 1.62 pM
24 | B5 | 4.38 pM
25 | B6 | 2.63 pM
26 | B7 | 2.02 pM
27 | B8 | 7.02 pM
28 | B9 | 4.36 pM
29 | B10 | 2.36 pM
30 | B11 | 1.2 pM
31 | B12 | 2.34 pM
32 | B13 | 4.27 pM
33 | B14 | 2.11 pM
34 | B15 | 3.5 pM
35 | B16 | 2.62 pM
36 | B17 | 6.8 pM
37 | B18 | 4.73 pM
38 | B19 | 8.09 pM

target: T3, human amylin-3(a) receptor (human, UniProt P30988 25-474; O60896 24-148); assay: cell-based or functional assay
T3 sequence (looked up) 1: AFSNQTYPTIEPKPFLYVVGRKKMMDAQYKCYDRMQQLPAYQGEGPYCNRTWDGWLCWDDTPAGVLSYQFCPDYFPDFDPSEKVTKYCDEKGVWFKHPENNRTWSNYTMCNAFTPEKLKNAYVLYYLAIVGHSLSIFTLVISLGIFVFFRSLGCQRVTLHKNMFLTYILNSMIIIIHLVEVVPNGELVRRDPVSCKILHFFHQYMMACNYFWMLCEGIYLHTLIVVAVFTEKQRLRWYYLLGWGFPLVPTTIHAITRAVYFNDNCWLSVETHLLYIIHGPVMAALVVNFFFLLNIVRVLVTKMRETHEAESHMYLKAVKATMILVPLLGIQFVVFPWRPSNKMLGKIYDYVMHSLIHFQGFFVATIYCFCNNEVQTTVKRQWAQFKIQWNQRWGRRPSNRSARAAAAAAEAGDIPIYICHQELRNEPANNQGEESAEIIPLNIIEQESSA
T3 sequence (looked up) 2: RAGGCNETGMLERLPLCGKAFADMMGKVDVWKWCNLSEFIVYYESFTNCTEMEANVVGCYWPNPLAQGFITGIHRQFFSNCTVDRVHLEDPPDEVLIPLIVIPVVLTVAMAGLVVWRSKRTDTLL

Row | Binder | hAMYR3 Potency, no HSA, EC50 [pM]
39 | B1 | 3.84 pM
40 | B2 | 2.98 pM
41 | B3 | 3.63 pM
42 | B4 | 5.75 pM
43 | B5 | 3.13 pM
44 | B6 | 4.69 pM
45 | B7 | 2.57 pM
46 | B8 | 3.2 pM
47 | B9 | 1.85 pM
48 | B10 | 3.2 pM
49 | B11 | 5.17 pM
50 | B12 | 4.24 pM
51 | B13 | 3.22 pM
52 | B14 | 3.82 pM
53 | B15 | 2.28 pM
54 | B16 | 3.09 pM
55 | B17 | 2.28 pM
56 | B18 | 2.69 pM
57 | B19 | 10.1 pM

target: T1, human GLP-1 receptor; assay: cell-based or functional assay; remark: another data set of the same source

Row | Binder | hGLP-1R Potency, 1% HSA, EC50 [pM]
58 | B1 | 208 pM
59 | B2 | 188 pM
60 | B3 | 2350 pM
61 | B4 | 1930 pM
62 | B5 | 41.5 pM
63 | B6 | 112 pM
64 | B7 | 67.5 pM
65 | B8 | 105 pM
66 | B9 | 110 pM
67 | B10 | 66.3 pM

target: T2, human GIP receptor; assay: cell-based or functional assay; remark: another data set of the same source

Row | Binder | hGIPR Potency, 1% HSA, EC50 [pM]
68 | B1 | 226 pM
69 | B2 | 133 pM
70 | B3 | 336 pM
71 | B4 | 352 pM
72 | B5 | 186 pM
73 | B6 | 132 pM
74 | B7 | 162 pM
75 | B8 | 54 pM
76 | B9 | 16.7 pM
77 | B10 | 15.1 pM

target: T3, human amylin-3(a) receptor; assay: cell-based or functional assay; remark: another data set of the same source

Row | Binder | hAMYR3 Potency, 1% HSA, EC50 [pM]
78 | B1 | 137 pM
79 | B2 | 75.7 pM
80 | B3 | 172 pM
81 | B4 | 140 pM
82 | B5 | 56.5 pM
83 | B6 | 62.4 pM
84 | B7 | 55.8 pM
85 | B8 | 78.5 pM
86 | B9 | 106 pM
87 | B10 | 185 pM
